Measurements: patent US20020065210A1 (Genentech, published 2002)

B1: full-length Apo-3 ligand (also referred to as TWEAK) expressed from pRK5 on transiently transfected 293 cells (ligand, UniProt O43508 1-249, looked up)
chain: MAARRSQRRRGRRGEPGTALLVPLALGLGLALACLGLLLAVVSLGSRASLSAQEPAQEELVAEEDQDPSELNPQTEESQDPAPFLNRLVRPRRSAPKGRKTRARRAIAAHYEVHPRPGQDGAQAGVDGTVSGWEEARINSSSPLRYNRQIGEFIVTRAGLYYLYCQVHFDEGKAVYLKLDLLVDGVLALRCLEEFSATAASSLGPQLRLCQVSGLLALRPGSSLRIRTLPWAHLKAAPFLTYFGLFQVH
notes: whole, on cells
B2: recombinant Fc-tagged DcR3 (expressed as described in Example 7, purified by Protein A chromatography) (Fc fusion)
chain: VAETPTYPWRDAETGERLVCAQCPPGTFVQRPCRRDSPTTCGPCPPRHYTQFWNYLERCRYCNVLCGEREEEARACHATHNRACRCRTGFFAHAGFCLEHASCPPGAGVIAPGTPSQNTQCQPCPPGTFSASSSSSEQCQPHRNCTALGLALNVPGSSSHDTLCTSCTGFPLSTRVPGAEECERAVIDFVAFQDISIKRLQRLLQALEAPEGWGPTPRAGRAALQLKLRRRLTELLGAQDGALLVRLLQALRVARMPGLERSVRERFLPVH
modifications: biotinylated in the FACS assay (sites not given)
notes: also called biotinylated Fc-tagged DcR3; DcR3-IgG; not shown: Fc tag (Fc region of IgG)
B3: purified, soluble Fas ligand (Alexis Biochemicals) (ligand, UniProt P48023 103-281, looked up)
chain: QLFHLQKELAELRESTSQMHTASSLEKQIGHPSPPPEKKELRKVAHLTGKSNSRSMPLEWEDTYGIVLLSGVKYKKGGLVINETGLYFVYSKVYFRGQSCNNLPLSHKVYMRNSKYPQDLVMMEGKMMSYCTTGQMWARSSYLGAVFNLTSADHLYVNVSELSLVNFEESQTFFGLYKL
notes: Commercial soluble form

Experiments:
[1] = target: Fas expressed on human HeLa S3 cells (human) (UniProt P25445); assay: cell-based or functional assay
Sequence of Fas expressed on human HeLa S3 cells (human) (P25445 26-335): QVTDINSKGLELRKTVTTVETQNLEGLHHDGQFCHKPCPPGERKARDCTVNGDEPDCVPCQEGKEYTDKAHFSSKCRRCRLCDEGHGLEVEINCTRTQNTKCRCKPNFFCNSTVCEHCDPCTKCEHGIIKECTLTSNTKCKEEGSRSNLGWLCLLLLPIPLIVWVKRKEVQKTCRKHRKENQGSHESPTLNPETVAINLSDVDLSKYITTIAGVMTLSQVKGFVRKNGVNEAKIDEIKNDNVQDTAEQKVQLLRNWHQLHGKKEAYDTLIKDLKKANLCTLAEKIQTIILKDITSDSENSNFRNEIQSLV

[2] = target: B2; assay: FACS, biotinylated Fc-tagged DcR3 on transiently transfected 293 cells
From the text: (§1) Human 293 cells (ATCC CRL 1573) were transiently transfected with empty pRK5 vector (see Example 5) or pRK5 encoding full-length TNF-alpha [Pennica et al., Nature, 312:724-729 (1984)], Fas ligand [Suda et al., Cell, 75:1169-1178 (1993)], LIGHT [Mauri et al., Immunity, 8:21 (1998)], Apo-2 ligand [[WO 97/25428 published Jul. 17, 1997)], Apo-3 ligand (also referred to as TWEAK) [Marsters et al., Current Biology, 8:525 (1998); Chicheportiche et al., J. Biol. Chem., 272:32401 (1997)], or […] (also referred to as TRANCE, RANKL) [Wong et al., J. Biol. Chem., 272:25190 (1997); Anderson et al., Nature, 390:175 (1997); Lacey et al., Cell, 93:165 (1998)].

[3] = target: T1, OPG (also referred to as TRANCE, RANKL), full-length, expressed from pRK5 on transiently transfected 293 cells (UniProt O14788 1-317, limits assumed); assay: as above
T1 construct: whole, on cells
T1 sequence (looked up): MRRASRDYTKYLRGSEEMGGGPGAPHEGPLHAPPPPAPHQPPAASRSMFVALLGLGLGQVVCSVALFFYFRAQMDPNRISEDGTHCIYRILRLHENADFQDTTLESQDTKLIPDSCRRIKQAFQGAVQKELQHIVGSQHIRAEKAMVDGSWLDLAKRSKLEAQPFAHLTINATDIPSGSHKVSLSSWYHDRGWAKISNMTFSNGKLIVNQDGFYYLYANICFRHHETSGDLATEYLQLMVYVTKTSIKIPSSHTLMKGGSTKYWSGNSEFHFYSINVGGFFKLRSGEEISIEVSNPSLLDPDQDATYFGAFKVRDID
From the text: as §1

[4] = target: T2, Fc-tagged ectodomain of TNFR1 (UniProt P19438 30-211, limits assumed); assay: co-immunoprecipitation with protein A-sepharose, anti-Fas ligand immunoblot
T2 construct: extracellular domain; Control immunoadhesin; also called Fc-tagged TNFR1; not shown: Fc tag
T2 sequence (looked up): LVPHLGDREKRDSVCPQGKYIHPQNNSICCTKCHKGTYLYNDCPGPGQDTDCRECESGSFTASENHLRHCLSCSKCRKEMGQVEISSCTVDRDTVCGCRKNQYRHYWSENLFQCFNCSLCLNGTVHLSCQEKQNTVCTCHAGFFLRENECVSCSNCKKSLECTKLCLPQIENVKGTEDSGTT
Procedure: Precipitates were resolved by SDS polyacrylamide gel electrophoresis (4-20% gradient) under reducing conditions (25 mM dithiothreitol), and visualized by immunoblot, followed by enhanced chemiluminescence detection (Amersham) with rabbit polyclonal anti-Fas ligand antibody (Oncogene Research Products) at 2 microgram/ml.

With “full-length Fas ligand expressed from pRK5 on transiently transfected cells (from UniProt P48023 1-281)” the apoptosis of transfected HeLa S3 cells (annexin binding by FACS) [1] was 25%.

B1: no binding [2].

B2: no binding [3].

B3: no binding [4].
